From patent publication US20150307603A1 (MODIQUEST B V, published 2015)
Non-standard residues stand in square brackets, D forms with d. No end group written: not given here. Cit = NC(=O)NCCC[C@H](N)C(=O)O

Legend:
CFC-1 [1] = target: T1, CFC-1; experiment: ELISA, Ab 0.4 ug/well
T1 construct: Positive control for anti-citrulline reactivity; also called cfc1 XG; Cfc1-peptide
Description: (§1) Biotin and citrulline-containing peptides derived from histone 2A were immobilized on NEUTRAVIDIN®-coated 96-well ELISA plates (0.3 μg/well). CFC-1 and CFC-0 were coated at the same concentration and served as positive and negative controls, respectively, for specific anti-citrulline reactivity and as coating controls. Non-coated wells were used to test for aspecific binding of the antibodies. […] Detection of bound anti-citrulline antibodies was performed by incubating the wells with rabbit anti-human HRP (1:2000) for 1 hour at RT followed by incubation with TMB substrate. The resulting OD (y-axis) is a measure for antibody binding.

[2] = target: T2, peptide no. 1 (human histone 2A) (human, also: biotin-labelled); experiment: ELISA, Ab 0.4 ug/well
T2 construct: also called peptide 1; AAASGXGKQGGK
T2 peptide: AAASG[Cit]GKQGGK
Description: as §1

[3] = target: T3, peptide no. 2 (human histone 2A) (human, also: biotin-labelled); experiment: ELISA, Ab 0.4 ug/well
T3 construct: also called peptide 2
T3 peptide: AKAKS[Cit]SSRAGL
Description: as §1

[4] = target: T4, peptide no. 3 (human histone 2A) (human, also: biotin-labelled); experiment: ELISA, Ab 0.4 ug/well
T4 construct: also called peptide 3
T4 peptide: KSRSS[Cit]AGLQFP
Description: as §1

[5] = target: T5, peptide no. 4 (human histone 2A) (human, also: biotin-labelled); experiment: ELISA, Ab 0.4 ug/well
T5 construct: also called peptide 4
T5 peptide: QFPVG[Cit]VHRLLR
Description: as §1

[6] = target: T6, peptide no. 5 (human histone 2A) (human, also: biotin-labelled); experiment: ELISA, Ab 0.4 ug/well
T6 construct: also called peptide 5
T6 peptide: VGRVH[Cit]LLRKGN
Description: as §1

[7] = target: T7, peptide no. 6 (human histone 2A) (human, also: biotin-labelled); experiment: ELISA, Ab 0.4 ug/well
T7 construct: also called peptide 6
T7 peptide: VHRLL[Cit]KGNYSE
Description: as §1

[8] = target: T8, peptide no. 7 (human histone 2A) (human, also: biotin-labelled); experiment: ELISA, Ab 0.4 ug/well
T8 construct: also called peptide 7
T8 peptide: GNYSE[Cit]VGAGAP
Description: as §1

[9] = target: T9, peptide no. 8 (human histone 2A) (human, also: biotin-labelled); experiment: ELISA, Ab 0.4 ug/well
T9 construct: also called peptide 8
T9 peptide: AGNAA[Cit]DNKKTR
Description: as §1

[10] = target: T10, peptide no. 9 (human histone 2A) (human, also: biotin-labelled); experiment: ELISA, Ab 0.4 ug/well
T10 construct: also called peptide 9
T10 peptide: DNKKT[Cit]IIPRHL
Description: as §1

[11] = target: T11, peptide no. 10 (human histone 2A) (human, also: biotin-labelled); experiment: ELISA, Ab 0.4 ug/well
T11 construct: also called peptide 10
T11 peptide: TRIIP[Cit]HLQLAI
Description: as §1

[12] = target: T12, peptide no. 11 (human histone 2A) (human, also: biotin-labelled); experiment: ELISA, Ab 0.4 ug/well
T12 construct: also called peptide 11
T12 peptide: LQLAI[Cit]NDEELN
Description: as §1

[13] = target: T13, peptide no. 12 (human histone 2A) (human, also: biotin-labelled); experiment: ELISA, Ab 0.4 ug/well
T13 construct: also called peptide 12
T13 peptide: NKLLG[Cit]VTIAQG
Description: as §1

CFC-1 [14] = target: T1, CFC-1; experiment: ELISA, Ab 0.016 ug/well
Description: as §1, with “fibrinogen and vimentin” for “histone 2A”
(§2) Biotin-labeled and citrulline-containing fibrinogen and vimentin peptides (Table 5) were also tested for reactivity with the therapeutic antibodies. Peptides were coated on 96-well NEUTRAVIDIN®-ELISA plates.

msFibα XH = target: T14, msFibα XH (mouse, X at position 15 = citrulline; biotin-labelled); experiment: ELISA, Ab 0.016 ug/well
T14 peptide: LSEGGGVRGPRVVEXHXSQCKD
Description: as §1, with “fibrinogen and vimentin” for “histone 2A”
as §2

msFibα XG = target: T15, msFibα XG (mouse, X at position 8 = citrulline; biotin-labelled); experiment: ELISA, Ab 0.016 ug/well
T15 peptide: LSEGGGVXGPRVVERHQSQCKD
Description: as §1, with “fibrinogen and vimentin” for “histone 2A”
as §2

huFibα XH = target: T16, huFibα XH (human, X at position 15 = citrulline; biotin-labelled); experiment: ELISA, Ab 0.016 ug/well
T16 peptide: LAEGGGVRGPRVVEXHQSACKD
Description: as §1, with “fibrinogen and vimentin” for “histone 2A”
as §2

huFibα XG = target: T17, huFibα XG (human, X at position 8 = citrulline; biotin-labelled); experiment: ELISA, Ab 0.016 ug/well
T17 peptide: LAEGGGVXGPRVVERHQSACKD
Description: as §1, with “fibrinogen and vimentin” for “histone 2A”
as §2

msFibβ XG = target: T18, msFibβ XG (mouse, also: biotin-labelled); experiment: ELISA, Ab 0.016 ug/well
T18 construct: also called mouse fibrinogen β peptide
T18 peptide: EPTDSLDA[Cit]GHRPVDRR
Description: as §1, with “fibrinogen and vimentin” for “histone 2A”
as §2

msVim XS/XL = target: T19, msVim XS/XL (mouse, also: biotin-labelled); experiment: ELISA, Ab 0.016 ug/well
T19 construct: also called mouse vimentin peptide
T19 peptide: YVT[Cit]SSAV[Cit]L[Cit]SSVP
Description: as §1, with “fibrinogen and vimentin” for “histone 2A”
as §2

[15] = target: T20, huPAD4-deiminated human recombinant histone 2A (human); experiment: ELISA, Ab 0.0032 ug/well
T20 construct: also called H2A/p4; histone 2A/p4
Description: (§3) The resulting OD (y-axis) is a measure for antibody binding. H1-recombinant histone 1; H1/p2-huPAD2 recombinant histone 1; H1/p4-huPAD4 recombinant histone 1, and so forth (x-axis).

[16] = target: T21, human recombinant histone 2B (human); experiment: ELISA, Ab 0.0032 ug/well
T21 construct: Non-deiminated; also called H2B
Description: as §3

[17] = target: T22, huPAD2-deiminated human recombinant histone 3 (human); experiment: ELISA, Ab 0.0032 ug/well
T22 construct: also called H3/p2; histone 3/p2
Description: as §3

[18] = target: T23, huPAD4-deiminated human recombinant histone 3 (human); experiment: ELISA, Ab 0.0032 ug/well
T23 construct: also called H3/p4
Description: as §3

[19] = target: human recombinant histone 4 (human, UniProt P62805 2-103); experiment: ELISA, Ab 0.0032 ug/well
Description: as §3

CFC-1 [20] = target: T1, CFC-1; experiment: ELISA, Ab 0.0032 ug/well
Description: as §3

B1: RhmAb2.102 (antibody, human IgG1, lambda)
heavy: not shown
light: QSVLTQPPSMSAAPGQKVTISCSGSSSNIGNNYVSWYQQVPGTAPKLLIYDDNKRPSGIPGRFSGSKSATSATLGITGLQAGDEADYYCGSWDDNLSVVLFGGGTKLTVLGQPKAAPSVTLFPPSSEELQANKATLVCLISDFYPGAVTVAWKADSSPVKAGVETTTPSKQSNNKYAASSYLSLTPEQWKSHRSYSCQVTHEGSTVEKTVAPTECS
notes: Human IgG1 lambda; also called Rhm2.102
OD (CFC-1 [1]): 3.06 OD450
OD [2]: 2.8 OD450
OD [3]: 0.136 OD450
OD [4]: 0.154 OD450
OD [5]: 0.564 OD450
OD [6]: 0.082 OD450
OD [7]: 0.333 OD450
OD [8]: 0.064 OD450
OD [9]: 0.061 OD450
OD [10]: 0.057 OD450
OD [11]: 0.051 OD450
OD [12]: 0.064 OD450
OD [13]: 0.061 OD450
OD (CFC-1 [14]): 1.22 OD450
OD (msFibα XH): 0.081 OD450
OD (msFibα XG): 0.107 OD450
OD (huFibα XH): 0.08 OD450
OD (huFibα XG): 0.103 OD450
OD (msFibβ XG): 0.174 OD450
OD (msVim XS/XL): 0.201 OD450
OD [15]: 0.135 OD450
OD [16]: 0.05 OD450
OD [17]: 0.08 OD450
OD [18]: 0.065 OD450
OD [19]: 0.06 OD450
OD (CFC-1 [20]): 0.178 OD450
